The target of this data set is GST-CjWRKY1 (Coptis japonica, UniProt A0ZT25 1-185). In words: EMSA; poly(dI-dC) 0.05 ug/ul; 3 ug protein, 20 fmol probe; EMSA: 1x LightShift binding buffer, 1 mM MgCl2, 0.5 mM EDTA, 0.05 ug/ul poly(dI-dC), 20 min at 4 C; pH not stated. As to conditions: protein: recombinant; tags: GST (N-terminal, pGEX-6P-1); label: biotin (sense and antisense oligonucleotides).
Sequence of GST-CjWRKY1 (A0ZT25 entry or part of it): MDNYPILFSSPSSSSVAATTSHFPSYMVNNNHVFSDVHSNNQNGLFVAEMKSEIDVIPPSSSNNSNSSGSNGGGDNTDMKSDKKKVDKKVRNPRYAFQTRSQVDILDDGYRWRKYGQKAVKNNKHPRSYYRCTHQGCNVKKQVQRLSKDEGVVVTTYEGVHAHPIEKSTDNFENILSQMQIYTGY

B1: 3x W-box probe (W2 of CYP80B2 promoter) (dsDNA)
DNA 1: CTGCTGACTAGCTGACTAGCTGACTAGATGG
DNA 2: CCATCTAGTCAGCTAGTCAGCTAGTCAGCAG
For the molecule B1, the binding result is recorded as “binds”.

These data come from publication PMC5009119, “Characterization of the Promoter Region of Biosynthetic Enzyme Genes Involved in Berberine Biosynthesis in Coptis japonica”.
